# In the supplement of paper PMC11811203:
# B1: THAP1; numbered along this chain (parent)
# chain: MVQSCSAYGCKNRYDKDKPVSFHKFPLTRPSLCKEWEAAVRRKNFKPTKYSSICSEHFTPDCFKRECNNKLLKENAVPTIFLCTEPHDKKEDLLEPQEQLPPPPLPPPVSQVDAAIGLLMPPLQTPVNLSVFCDHNYTVEDTMHQRKRIHQLEQQVEKLRKKLKTAQQRCRRQERQLEKLKEVVHFQKEKDDVSERGYVILPNDYFEIVEVPA
# Variants of: B1
# Experiment: THAP1 transcriptional activity (GFP+/GFP- enrichment relative to wild-type constructs) (ratio to WT); higher = more THAP1 activity (PSMB5 reporter activation)
# Conditions: with PSMB5 promoter-GFP reporter
# Outline: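 Activity values are replicate-mean bright/dim read fold changes divided by the mean of wild-type synonymous constructs. They come from a human THAP1 site-saturation library (residues 2–213, each changed to all 20 amino acids) delivered by lentivirus at MOI ~0.3, in duplicate, into THAP1-knockout HEK-293T cells with mClover3 at endogenous PSMB5. BFP+ cells were sorted into GFP-dim and GFP-bright bins after five days, and variants were counted by Illumina sequencing of genomic DNA amplicons.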
row,Variant,THAP1 transcriptional activity
1,A7I,0.165
2,E195K,1.37
3,E195V,1.02
4,P60N,0.844
5,P60C,0.174
6,P60R,0.718
7,E56V,0.83
8,E37F,0.177
9,V156Y,0.362
10,V156L,0.731
11,E74H,0.512
12,E74N,0.686
13,E74W,0.598
14,N75C,0.38
15,N75Q,0.684
16,N75E,0.468
17,N75D,0.507
18,F25E,0.148
19,F25P,0.105
20,F25T,0.0714
21,M143S,0.971
22,F63E,0.0925
23,N203D,0.653
24,I208A,0.838

row,Variant,THAP1 transcriptional activity
1,I208S,1.17
2,I208F,0.98
3,L163S,0.142
4,L163I,0.488
5,L163P,0.149
6,I116E,0.841
7,D15N,0.605
8,P102E,1.85
9,P102C,1.36
10,M120F,0.651
11,P19Q,0.335
12,P30S,0.33
13,P30L,0.261
14,P121W,0.0793
15,P121S,0.441
16,P101C,0.582
17,P101F,0.64
18,K147S,0.621
19,K147N,0.976
20,K147I,0.346
21,K147W,0.458
22,K147T,0.664
23,K147R,0.9
24,K18A,0.356

row,Variant,THAP1 transcriptional activity
1,K18N,0.432
2,K18Q,0.511
3,A213R,0.843
4,D92G,0.763
5,S110Y,0.394
6,Q168G,0.391
7,Q168T,0.711
8,L180W,0.575
9,P107D,1.21
10,E210V,1.06
11,E210F,0.823
12,V2C,0.162
13,V2D,0.178
14,V2M,0.183
15,Q151I,0.817
16,Q151V,0.675
17,Q151G,0.864
18,Q154V,0.661
19,L123W,0.642
20,A76E,0.444
21,A76I,0.165
22,A76F,0.307
23,D141Y,0.644
24,P96G,1.55

row,Variant,THAP1 transcriptional activity
1,A166H,0.35
2,A166W,0.485
3,A166T,0.965
4,Y137C,0.147
5,G9T,0.132
6,G9C,0.261
7,A114N,1.35
8,A114Q,0.985
9,A114Y,0.291
10,A114G,0.748
11,Y50A,0.294
12,Y50C,0.275
13,F58M,0.105
14,G117F,0.352
15,G117Y,0.262
16,V127Y,0.411
17,V127C,0.636
18,K164E,0.343
19,K181V,0.316
20,K181N,0.511
21,H135C,0.22
22,I80E,0.459
23,I80P,0.235
24,V211R,0.811

row,Variant,THAP1 transcriptional activity
1,E91V,0.513
2,R148F,0.196
3,R148N,0.303
4,E85P,1.01
5,C62W,0.113
6,C62A,0.523
7,L105C,1.32
8,L105E,1.27
9,V20F,0.204
10,V77G,0.281
11,P122T,0.614
12,P122V,0.214
13,Y198W,0.672
14,L177I,0.925
15,L177Q,0.191
16,P47R,0.0941
17,P47W,0.0629
18,P47Y,0.114
19,P47D,0.108
20,T48W,0.0814
21,T48N,0.545
22,L201W,0.749
23,L201A,0.829
24,K158L,0.386

row,Variant,THAP1 transcriptional activity
1,R42K,0.189
2,R42Q,0.202
3,V40A,0.221
4,K73L,0.33
5,H23E,0.123
6,H23F,0.0843
7,H23W,0.0807
8,H23Q,0.0718
9,D204K,0.75
10,D204P,0.777
11,L159W,0.164
12,L159A,0.245
13,L159E,0.147
14,L159V,0.327
15,L159D,0.213
16,L159M,0.541
17,L118G,0.954
18,C33D,0.11
19,Y8T,0.785
20,F81M,0.341
21,K43L,0.454
22,P104S,2.12
23,P104Q,1.88
24,Q99R,1.3

row,Variant,THAP1 transcriptional activity
1,N12G,0.0923
2,A39L,0.253
3,P126R,0.51
4,P126K,0.562
5,S55L,0.106
6,S55F,0.084
7,S55I,0.114
8,T28D,0.202
9,T28M,0.3
10,R65C,0.173
11,R65D,0.388
12,K46A,0.436
13,K46Y,0.335
14,K46R,0.568
15,K46T,0.869
16,K70C,0.313
17,V139H,0.721
18,V139I,0.897
19,L72R,0.0764
20,L72Y,0.172
21,L72A,0.17
22,L32F,0.14
23,L32A,0.175
